The target in this experiment is T1, cynomolgus CD137 on cells (cynomolgus macaque, UniProt A9YYE7 24-254).
T1 construct: whole, on cells; also called CHO-K1/cynomolgus CD137; cynomolgus monkey CD137
The experiment can be described thus: flow cytometry, cynomolgus CD8 T cells gated from CD3-stimulated PBMC, normalized MFI, 2 pooled experiments. As for the experimental part: Isolation and stimulation of cynomolgus PBMC: Cynomolgus PBMC were isolated from 20 mL of cynomolgus monkey blood from 3 different donors, obtained from Silabe, France by density gradient centrifugation using Lympholyte-mammal (Cedarlane labs) according to manufacturer's instructions. Non-tissue treated 96 well plates were pre-coated overnight at 4° C. with 3 μg/mL α-monkey CD3, clone FN-18 (Invitrogen #APS0301). The cynomolgus PBMC were then stimulated identically as the human PBMC described above
FACS staining and analysis of CD8 T cells: Following 48 h of incubation with or without CD3, human and cynomolgus PBMC were harvested, pooled, recounted and diluted in FACS buffer (PBS+0.5% BSA, 0.05% NaN₃) to a concentration of 5×10⁶ cells/mL. 50 μL (0.25×10⁶ cells) of cell solution was added to a 96-well FACS staining plate (Falcon #351190). […] Cells were analysed for ALG.APV-210 binding using flow cytometry by gating on viable, single cells expressing CD3 and CD8. MFI values (FMO subtracted) from 2 independent experiments as well as normalized pooled data from 2 experiments and EC₅₀-values were determined and plotted using GraphPad Prism 7, non-linear regression log (agonist) vs. normalized response-variable slope, n=6 donors/group.
A general note: Flow cytometry measures light scatter and fluorescence of single cells or particles in a stream.

T1 sequence (A9YYE7 entry or part of it): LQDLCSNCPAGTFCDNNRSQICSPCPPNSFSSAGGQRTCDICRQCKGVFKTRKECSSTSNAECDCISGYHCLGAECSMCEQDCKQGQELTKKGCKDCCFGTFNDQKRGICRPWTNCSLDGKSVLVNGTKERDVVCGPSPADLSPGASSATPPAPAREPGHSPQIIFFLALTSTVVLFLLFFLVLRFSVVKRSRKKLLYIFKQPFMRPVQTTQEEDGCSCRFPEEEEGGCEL

B1: biotinylated ALG.APV-210 (bispecific antibody)
chain: EVQLLESGGGLVQPGGSLRLSCAASGFTFSHGSMYWVRQAPGKGLEWVSSISSGSGSTYYADSVKGRFTISHDNSKNTLYLQMNSLRAEDTAVYYCARSSYYGSYYSIDYWGQGTLVTVSSGGGGSGGGGSGGGGSGGGGSDIQMTQSPSSLSASVGDRVTITCRASQSISSYLNWYQQKPGKAPKLLIYAASSLQSGVPSRFSGSGSGTDFTLTISSLQPEDFATYYCQQYYDNLPTFGQGTKLEIKEPKSSDKTHTCPPCPAPEAAGAPSVFLFPPKPKDTLMISRTPEVTCVVVDVSHEDPEVKFNWYVDGVEVHNAKTKPREEQYNSTYRVVSVLTVLHQDWLNGKEYKCAVSNKALPAPIEKTISKAKGQPREPQVYTLPPSRDELTKNQVSLTCLVKGFYPSDIAVEWESNGQPENNYKTTPPVLDSDGSFFLYSKLTVDKSRWQQGNVFSCSVMHEALHNHYTQKSLSLSPGSGGGGSGGGGSGGGGSPSEVQLLESGGGLVQPGGSLRLSCAASGFTFSSYAMSWVRQAPGKCLEWVSAISGSGGSTYYADSVKGRFTISRDNSKNTLYLQMNSLRAEDTAVYYCARYYGGYYSAWMDYWGQGTLVTVSSGGGGSGGGGSGGGGSGGGGSDIQMTQSPSSLSASVGDRVTITCRASQSISSFLNWYQQKPGKAPKLLIYAASSLQSGVPSRFSGSGSGTDFTLTISSLQPEDSATYYCQQTYGYLHTFGCGTKLEIKR
modifications: biotinylated (sites not given)
On to B1, for which the EC50 worked out at 236 pM.

For orientation: EC50 means the concentration needed to bring the measured effect to its halfway point.

These data come from patent publication US20190382503A1 (published 2019).
